From paper PMC5897841, “Development of a multipurpose scaffold for the display of peptide loops” (Protein Engineering, Design and Selection, 2017)
Ends that are not written are not given here.

T1: Aurora A_(D274N) kinase domain (human, UniProt O14965 122-403, D274N)
T1 construct: Aurora A kinase, human, kinase domain residues 122-403, kinase dead D274N; theoretical mass 33.8 kDa; Cloned into pHAT5 in frame with a C-terminal 6xHis-tag; also called kinase dead human Aurora A D274N mutant; source: E. coli BL21(DE3), purified (HisTrap HP, Superdex 75 SEC); not shown: His6, C-terminal, kept
T1 sequence (looked up): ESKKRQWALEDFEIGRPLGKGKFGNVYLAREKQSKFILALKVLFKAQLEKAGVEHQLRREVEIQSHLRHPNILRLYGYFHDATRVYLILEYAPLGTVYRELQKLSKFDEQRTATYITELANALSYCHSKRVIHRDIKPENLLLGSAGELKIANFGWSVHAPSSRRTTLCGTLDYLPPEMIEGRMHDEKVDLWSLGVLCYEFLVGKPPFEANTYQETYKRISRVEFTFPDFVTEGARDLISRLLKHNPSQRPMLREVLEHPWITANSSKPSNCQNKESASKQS

B1: Aurora A wild-type kinase domain (untagged) (domain or fragment)
chain: FEIGRPLGKGKFGNVYLAREKQSKFILALKVLFKAQLEKAGVEHQLRREVEIQSHLRHPNILRLYGYFHDATRVYLILEYAPLGTVYRELQKLSKFDEQRTATYITELANALSYCHSKRVIHRDIKPENLLLGSAGELKIADFGWSVHAPSSRRTTLCGTLDYLPPEMIEGRMHDEKVDLWSLGVLCYEFLVGKPPFEANTYQETYKRISRVEFTFPDFVTEGARDLISRLLKHNPSQRPMLREVLEHPWI
B2: linear TPX2_((7–43)) peptide (peptide)
peptide: LSYSYDAPSDFINFSSLDDEGDTQNIDSWFEEKANLENLKGGGCQM
notes: residue before the TPX2 stretch in the printed peptide; TPX2, human, residues 7-43; C-terminal extension of the printed peptide with the cysteine handle; Used free in ITC and immobilised through the cysteine on CM5 in SPR; also called TPX2 peptide; TPX-2 peptide; source: E. coli BL21(DE3), KSI fusion (pET31b), inclusion bodies, Ni-NTA, CNBr cleavage, reverse-phase HPLC
B3: Alexa Fluor 488-TPX2_((7–43)) peptide (peptide)
peptide: LSYSYDAPSDFINFSSLDDEGDTQNIDSWFEEKANLENLKGGGC(Alexa Fluor 488‑maleimide)QM
notes: residue before the TPX2 stretch in the printed peptide; TPX2, human, residues 7-43; C-terminal extension of the printed peptide with the cysteine that is labelled; As m10, labelled; the methods speak of 'free N-terminal cysteines' but the only cysteine of the printed peptide is near its C-terminus; also called Alexa Fluor 488-labeled TPX2 peptide; labeled wild-type TPX2 peptide; source: E. coli …

Experiments:
Conditions in all cases: both partners purified
[1] = target: B3; test: fluorescence polarisation; fluorescence anisotropy, direct titration of Aurora A wild type into 10 nM Alexa Fluor 488-TPX2 peptide, 25°C, HEPES pH 7.4, 0.1 M Mg(CH3COO)2, 100 mM NaCl, 1 mM ATP, 1 mM DTT, 0.01% P20; quadratic single-site equation
[2] = target: T1, Aurora A_(D274N) kinase domain; test: SPR; Biacore T100, CM5, peptides or cRAD display proteins immobilised through their cysteine (240-400 RU), kinase as analyte 2.5 nM-2.5 μM, 25°C, 10 mM HEPES pH 7.4, 500 mM NaCl, 0.05% P20; 1:1 steady-state affinity model; CK2α data analysed at 200 s post-injection
[3] = target: T1, Aurora A_(D274N) kinase domain; test: ITC; itc200, 25°C, 10 mM HEPES pH 7.4, 500 mM NaCl, 0.05% P20; 50 μM titrant into 5 μM Aurora A D274N, 100 μM CK2β peptide or RAD-CK2β into 10 μM CK2α; single-site model
[4] = target: T1, Aurora A_(D274N) kinase domain; test: fluorescence polarisation; fluorescence anisotropy, direct titration of kinase (CK2α 2 nM-2 μM; Aurora A D274N 2 nM-1.5 μM) into labelled peptide or display protein; 10 mM HEPES pH 7.4, 500 mM NaCl, 1 mM DTT, 0.05% P20; room temperature; 1:1 model

Binder: B1
Kd [1]: 2.1 nM

Binder: B2
Kd [2]: 72 nM
Kd [3]: 115 nM

Binder: B3
Kd [4]: 74 nM
